Data: US20200165324A1 (INTERNATIONAL AIDS VACCINE INITIATIVE, published 2020)

Key:
[1] = molecular target: JR-CSF Env on JR-CSF pseudovirus; experiment: cell-based or functional assay
[2] = molecular target: BG505 N279A; experiment: cell-based or functional assay
[3] = molecular target: BG505 K282A; experiment: cell-based or functional assay
[4] = molecular target: BG505 Env on BG505 pseudovirus (HIV isolate BG505); experiment: cell-based or functional assay
[5] = molecular target: BG505 D368R recombinant gp120 protein; experiment: ELISA on recombinant gp120
[6] = molecular target: T1, BG505 WT recombinant gp120 protein (HIV isolate BG505); experiment: ELISA on recombinant gp120
T1 construct: also called WT protein

[7] = molecular target: T2, BG505 SOSIP.664 gp140 trimer (HIV isolate BG505); experiment: complex used as bait in flow cytometry sorting
T2 construct: Soluble Env trimer made in HEK293F cells with co-transfected furin (cleaved gp120 and gp41 ectodomain, disulfide-linked); His- and Avi-tagged (biotinylated) versions were also made; also called BG505 SOSIP trimer; BG505 SOSIP.664-His gp140

[8] = molecular target: BG505 N279A; experiment: ELISA, gp120 captured from lysed virions
[9] = molecular target: BG505 K282A; experiment: ELISA, gp120 captured from lysed virions
[10] = molecular target: BG505 G472A; experiment: ELISA, gp120 captured from lysed virions
[11] = molecular target: T3, JR-CSF gp120 captured from lysed virions (HIV isolate JR-CSF, UniProt P20871 32-503); experiment: ELISA, gp120 captured from lysed virions
T3 construct: gp120 from NP40-lysed pseudovirus, captured by an anti-C5 gp120 antibody

[12] = molecular target: T4, SS-B/La (human, UniProt P05455 1-408, limits assumed); experiment: single autoantigen ELISA (Aesku), cut-off of the manufacturer
T4 sequence (looked up): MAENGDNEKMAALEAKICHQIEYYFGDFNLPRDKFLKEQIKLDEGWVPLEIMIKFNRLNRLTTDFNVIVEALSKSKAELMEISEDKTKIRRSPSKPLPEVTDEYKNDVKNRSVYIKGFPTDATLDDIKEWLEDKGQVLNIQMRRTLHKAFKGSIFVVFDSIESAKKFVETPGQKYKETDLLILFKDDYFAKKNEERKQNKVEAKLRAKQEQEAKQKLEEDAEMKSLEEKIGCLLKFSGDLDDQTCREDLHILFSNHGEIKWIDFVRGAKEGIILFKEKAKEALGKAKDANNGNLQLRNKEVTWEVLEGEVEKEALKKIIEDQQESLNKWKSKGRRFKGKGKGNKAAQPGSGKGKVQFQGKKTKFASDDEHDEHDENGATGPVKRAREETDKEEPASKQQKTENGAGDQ
Procedure: (§1) Single antigen ELISA assays for SSA/Ro, SS-B/La, Sm, ribonucleoprotein (RNP), Jo-1, double-stranded DNA, centromere B, and histones were purchased from Aesku Diagnostics (Oakland, Calif.). The 96 wells were separately coated with these eight cellular and nuclear antigens for the qualitative detection of mAbs reactivity. A cut-off calibrator was provided by the manufacturer. The negative control was diluted human serum.

[13] = molecular target: T5, Jo-1 (human, UniProt P12081 1-509, limits assumed); experiment: as above
T5 sequence (looked up): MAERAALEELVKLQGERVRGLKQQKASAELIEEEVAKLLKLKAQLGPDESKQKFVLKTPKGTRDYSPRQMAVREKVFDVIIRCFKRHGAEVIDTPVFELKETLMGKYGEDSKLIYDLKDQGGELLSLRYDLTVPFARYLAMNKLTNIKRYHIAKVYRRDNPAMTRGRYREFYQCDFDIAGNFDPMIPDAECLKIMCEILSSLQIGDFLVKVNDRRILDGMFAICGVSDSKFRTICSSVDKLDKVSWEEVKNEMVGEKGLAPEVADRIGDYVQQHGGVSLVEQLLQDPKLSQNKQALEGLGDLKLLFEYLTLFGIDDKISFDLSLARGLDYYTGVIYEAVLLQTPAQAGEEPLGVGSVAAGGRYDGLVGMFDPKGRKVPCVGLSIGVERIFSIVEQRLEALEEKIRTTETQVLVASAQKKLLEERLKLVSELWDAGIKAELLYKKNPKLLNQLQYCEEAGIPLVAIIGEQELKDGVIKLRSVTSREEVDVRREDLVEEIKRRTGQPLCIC
Procedure: as §1

[14] = molecular target: T6, centromere B (human, UniProt P07199 1-599); experiment: as above
T6 sequence (looked up): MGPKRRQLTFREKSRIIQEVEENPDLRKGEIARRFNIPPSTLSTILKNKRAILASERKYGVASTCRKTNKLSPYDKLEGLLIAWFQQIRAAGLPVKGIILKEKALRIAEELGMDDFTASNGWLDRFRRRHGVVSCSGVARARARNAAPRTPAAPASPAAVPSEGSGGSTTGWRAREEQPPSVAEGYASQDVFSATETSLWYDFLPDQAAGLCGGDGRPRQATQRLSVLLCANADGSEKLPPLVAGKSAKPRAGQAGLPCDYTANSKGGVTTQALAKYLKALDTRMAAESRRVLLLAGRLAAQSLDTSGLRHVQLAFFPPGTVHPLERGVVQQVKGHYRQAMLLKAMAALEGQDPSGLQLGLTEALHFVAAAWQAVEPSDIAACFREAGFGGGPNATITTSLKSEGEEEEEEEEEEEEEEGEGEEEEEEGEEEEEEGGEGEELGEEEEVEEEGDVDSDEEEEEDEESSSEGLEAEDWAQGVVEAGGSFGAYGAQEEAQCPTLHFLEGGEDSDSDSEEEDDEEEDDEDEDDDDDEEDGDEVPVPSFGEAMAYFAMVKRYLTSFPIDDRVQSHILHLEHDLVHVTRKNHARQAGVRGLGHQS
Procedure: as §1

[15] = molecular target: T2, BG505 SOSIP.664 gp140 trimer; experiment: single particle negative stain electron microscopy

Binder	IC50, pseudovirus neutralization [1] [µg/mL]	IC50, pseudovirus neutralization [2] [µg/mL]	IC50, pseudovirus neutralization [3] [µg/mL]	IC50, pseudovirus neutralization [4] [µg/mL]	EC50 (read off the curve) [5] [µg/mL]	EC50 (read off the curve) [6] [µg/mL]	binding result [7]	EC50 [8] [µg/mL]	EC50 [9] [µg/mL]	EC50 [10] [µg/mL]	EC50 [11] [µg/mL]	binding result [12]	binding result [13]	binding result [14]	binding result [15]
NC-Cow1 (antibody, detected with anti-human IgG; also called d238-P1B4_NC-Cow1; mature NC-Cow1 HC + mature NC-Cow1 LC) VH: QVQLRESGPSLMKPSQTLSLTCTVSGSSLNDKSVGWVRQAPGKALQWLGSVDTSGNTDYNPGLKSRLSITKDNSKSRISLTVTGMTTEDSATYYCITAHQKTNKKECPEDYTYNPRCPQQYGWSDCDCMGDRFGGYCRQDGCSNYIHRSTYEWYVSAWGQGLLVTVSS VL: SYELTQPSSVSGSLGQRVSVTCSGSSSNVGNGYVSWYQLIPGSAPRTIIYGDTSRASGVPERFSGSRSGNTATLTISSLQAEDEADFFCASPDDSSSNAVFGSGTTLTVL	0.821	0.012	0.02	0.006	~0.04	~0.06	binds	0.11	1.18	0.37	0.075	no binding (tested: 100 µg/ml)	no binding (tested: 100 µg/ml)	no binding (tested: 100 µg/ml)	
NC-Cow1 Fab (Fab, Fab used for negative stain electron microscopy; also called cow Fab NC-Cow1) VH: QVQLRESGPSLMKPSQTLSLTCTVSGSSLNDKSVGWVRQAPGKALQWLGSVDTSGNTDYNPGLKSRLSITKDNSKSRISLTVTGMTTEDSATYYCITAHQKTNKKECPEDYTYNPRCPQQYGWSDCDCMGDRFGGYCRQDGCSNYIHRSTYEWYVSAWGQGLLVTVSS VL: SYELTQPSSVSGSLGQRVSVTCSGSSSNVGNGYVSWYQLIPGSAPRTIIYGDTSRASGVPERFSGSRSGNTATLTISSLQAEDEADFFCASPDDSSSNAVFGSGTTLTVL															binds
NC-Cow2 Fab (Fab, Fab used for negative stain electron microscopy; also called cow Fab NC-Cow2) VH: KVQLRESGPSLVKPSQTLSLTCMVSGSSLSDKAVGWVRQAPGKALEWLGIISAGGNRGYNSGLRSRLTISKDNSKNEVSLRVRSVTTEDSATYFCGTVHQKTQRKPICPDGYSDDSTLRYYSRCSDRDCWRCTGTTYYDTCQCGTYTWIDTHELHVDAWGQGLLVTVSS VL: QAVLNQPSSVSGSLGQRVSITCSGSSSNVGNGYVSWYQLIPGSAPRTLIYGDTSRASGVPDRFSGSRSGNTATLTISSLQAEDEADYFCASAEDSSSNAVFGSGTTLTVL															binds
